According to paper PMC8324831, “A synthetic nanobody targeting RBD protects hamsters from SARS-CoV-2 infection” (Nature Communications, 2021):
Where a chain is given by its changes, count along the chain named.

B1: MR7 (VHH)
VHH: QVQLVESGGGLVQAGGSLRLSCAASGFPVNSWMEWYRQAPGKEREWVAAITSYGYKTYYADSVKGRFTISRDNAKNTVYLQMNSLKPEDTAVYYCNVKDEGYFSDEYDYWGQGTQVTVS
B2: MR15 (VHH)
VHH: B1 VHH with N30D, S31T, E100F, F103A, D105T, E106Y
B3: SR62 (VHH)
VHH: QVQLVESGGGLVQAGGSLRLSCAASGFPVFQENMHWYRQAPGKEREWVAAIYSQGSYTLYADSVKGRFTISRDNAKNTVYLQMNSLKPEDTAVYYCEVNVGQWYYGQGTQVTVS
B4: LR8 (VHH)
VHH: QVQLVESGGGSVQAGGSLRLSCAASGTIAYIKYLGWFRQAPGKEREGVAALMTRWGETYYADSVKGRFTVSLDNAKNTVYLQMNSLKPEDTALYYCAAANYGANFPLQANTYFYWGQGTQVTVS
B5: LR12 (VHH)
VHH: B4 VHH with T27S, Y30S, N100E, Y101C, F105S, Q108H, N110K, T111D, F113S
B6: LR17 (VHH)
VHH: B4 VHH with T27S, Y30H, W55H, E57Q, N100Y, Q108F, A109Q, N110T, T111G, F113T
B7: MR8 (VHH)
VHH: QVQLVESGGGLVQAGGSLRLSCAASGFPVEWAHMHWYRQAPGKEREWVAAIVSAGHYTVYADSVKGRFTISRDNAKNTVYLQMNSLKPEDTAVYYCNVKDWGSSNQYYDYWGQGTQVTVS
B8: MR14 (VHH)
VHH: B7 VHH with E30M, W31Y, A32T, A54L, H56E, V59T, S103A, S104A, Q106K
B9: MR12 (VHH)
VHH: B7 VHH with A32S, A54T, H56E, V59K, G102Y, S103G, S104Q, N105A, Q106K, Y107S
B10: MR11 (VHH)
VHH: QVQLVESGGGLVQAGGSLRLSCAASGFPVEWTSMVWYRQAPGKEREWVAAIYSAGHHTKYADSVKGRFTISRDNAKNTVYLQMNSLKPEDTAVYYCNVKDYGHDRSNYDYWGQGTQVTVS
B11: LR3 (VHH)
VHH: QVQLVESGGGSVQAGGSLRLSCAASGTINNITYLGWFRQAPGKEREGVAALITTSGYTYYADSVKGRFTVSLDNAKNTVYLQMNSLKPEDTALYYCAAASWGYEWPLVYDDYWYWGQGTQVTVS
B12: LR6 (VHH)
VHH: B11 VHH with T27S, N29S, N30S, I52V, Y57N, S100T, E104S, V108E, Y109H, D111E
B13: LR9 (VHH)
VHH: B11 VHH with T27S, N29S, N30S, T54A, S55R, Y57R, S100N, E104N, V108A, D110S
B14: MR2 (VHH)
VHH: QVQLVESGGGLVQAGGSLRLSCAASGFPVYFSYMAWYRQAPGKEREWVAAINSEGDSTTYADSVKGRFTISRDNAKNTVYLQMNSLKPEDTAVYYCNVKDYGWYNSQYDYWGQGTQVTVS
B15: MR13 (VHH)
VHH: QVQLVESGGGLVQAGGSLRLSCAASGFPVKNMNMHWYRQAPGKEREWVAAIYSYGVETHYADSVKGRFTISRDNAKNTVYLQMNSLKPEDTAVYYCNVKDWGSYMNWYDYWGQGTQVTVS
B16: LR11 (VHH)
VHH: QVQLVESGGGSVQAGGSLRLSCAASGSISSITYLGWFRQAPGKEREGVAALVTHSGSTYYADSVKGRFTVSLDNAKNTVYLQMNSLKPEDTALYYCAAAYWGWDWPLNSQDYWYWGQGTQVTVS
B17: LR13 (VHH)
VHH: B16 VHH with V52I, S55A, S57R, Y100D, D104Y, N108V, S109I, Q110D, D111H, W113E
B18: LR16 (VHH)
VHH: B16 VHH with V52Y, H54T, S55H, S57Y, Y100D, W103Y, D104N, W105I, S109I, Q110T
B19: MR19 (VHH)
VHH: QVQLVESGGGLVQAGGSLRLSCAASGFPVRNTEHMYWYRQAPGKEREWVAAIFSMGRFTKYADSVKGRFTISRDNAKNTVYLQMNSLKPEDTAVYYCNVKDTGSFSEGYDYWGQGTQVTVS
B20: SR61 (VHH)
VHH: QVQLVESGGGLVQAGGSLRLSCAASGFPVDIAEMAWYRQAPGKEREWVAAIGSQGMTTHYADSVKGRFTISRDNAKNTVYLQMNSLKPEDTAVYYCAVHVGFWYAGQGTQVTVS
B21: MR18 (VHH)
VHH: QVQLVESGGGLVQAGGSLRLSCAASGFPVWEHHMAWYRQAPGKEREWVAAITSKGRYTTYADSVKGRFTISRDNAKNTVYLQMNSLKPEDTAVYYCHVKDAGYFDAQYDYWGQGTQVTVS
B22: LR7 (VHH)
VHH: QVQLVESGGGSVQAGGSLRLSCAASGSISSITYLGWFRQAPGKEREGVAALITNWGHTYYADSVKGRFTVSLDNAKNTVYLQMNSLKPEDTALYYCAAAFHGEQYPLYTNKYHYWGQGTQVTVS
B23: MR6 (VHH)
VHH: QVQLVESGGGLVQAGGSLRLSCAASGFPVEDTWMEWYRQAPGKEREWVAAITSWGFKTYYADSVKGRFTISRDNAKNTVYLQMNSLKPEDTAVYYCNVKDEGDTSASYDYWGQGTQVTVS
B24: MR9 (VHH)
VHH: B23 VHH with E30A, D31S, W54Y, F56Y, K57H, D103Y, T104F, A106T, S107N
B25: MR16 (VHH)
VHH: B23 VHH with D31R, W54Y, F56Y, K57R, D103S, T104A, A106S, S107A
B26: MR10 (VHH)
VHH: B23 VHH with E30A, D31N, W54Y, F56Y, K57R, D103A, S105T, A106K, S107V
B27: MR1 (VHH)
VHH: QVQLVESGGGLVQVGGSLRLSCAASGFPVYHSIMHWYRQAPGKEREWVAAIYSSGAHTYYADSVKGRFTISRDNAKNTVYLQMNSLKPEDTAVYYCNVKDGGNWDHTYDYWGQGTQVTVS
B28: LR2 (VHH)
VHH: QVQLVESGGGSVQAGGSLRLSCAASGDINAIGYLGWFRQAPGKEREGVAALDTDEGQTYYADSVKGRFTVSLDNAKNTVYLQMNSLKPEDTALYYCAAAMNGYNEPLYSYDYEYWGQGTQVTVS
B29: LR10 (VHH)
VHH: QVQLVESGGGSVQAGGSLRLSCAASGTISSITYLGWFRQAPGKEREGVAALTTNNGHTYYADSVKGRFTVSLDNAKNTVYLQMNSLKPEDTALYYCAAADWGYDWPLDRYHYWYWGQGTQVTVS
B30: LR14 (VHH)
VHH: B29 VHH with T27S, S29P, S30G, T52V, N55S, D104Q, R109K, Y110A, H111E
B31: LR18 (VHH)
VHH: B16 VHH with H54E, S55N, S57H, Y100T, W103Y, D104E, N108Y, Q110N, W113F
B32: LR15 (VHH)
VHH: B29 VHH with T27S, T52K, N54A, N55S, H57Q, D104N, D108I, Y110E, H111E, W113E
B33: LR4 (VHH)
VHH: QVQLVESGGGSVQAGGSLRLSCAASGFIHSIYYLGWFRQAPGKEREGVAALNTQHGTTYYADSVKGRFTVSLDNAKNTVYLQMNSLKPEDTALYYCAAARWGRNYPLNYWQYSYWGQGTQVTVS
B34: MR5 (VHH)
VHH: QVQLVESGGGLVQAGGSLRLSCAASGFPVDAWEMAWYRQAPGKEREWVAAIRSFGRRTHYADSVKGRFTISRDNAKNTVYLQMNSLKPEDTAVYYCNVKDFGTHTQEYDYWGQGTQVTVS

What follows are binders tested against SARS-CoV-2 S-RBD with Avi-tag and deca-His tag (residues 330-531) (SARS-CoV-2, UniProt P0DTC2, biotin on the Avi tag (BirA) where immobilised on streptavidin sensors or used in ELISA and FSEC).
B1: binds.
B2: binds.
B3: binds.
B4: binds.
B5: binds.
B6: binds.
B7: binds.
B8: binds.
B9: binds.
B10: binds.
B11: binds.
B12: binds.
B13: binds.
B14: binds.
B15: binds.
B16: binds.
B17: binds.
B18: binds.
B19: binds.
B20: binds.
B21: binds.
B22: binds.
B23: binds.
B24: binds.
B25: binds.
B26: binds.
B27: binds.
B28: binds.
B29: binds.
B30: binds.
B31: binds.
B32: binds.
B33: binds.
B34: binds.
